From patent publication US20180023049A1, “SYNTHETIC PEPTIDE HYDROGEL FORMULATIONS FOR USE AS EXTRACELLULAR MATRIX” (3-D MATRIX, LTD., priority 2015, published 2018)

Tests used:
[1] = pH, pKa and isoelectronic point of PuraMatrix; assay type: physicochemical; settings: aqueous 1% PuraMatrix solution, in this study
From the text: Isoelectronic point (pI) is the pH at which a particular molecule carries no net electrical charge. PuraMarix® has four arginine and four aspartic acid. […] That means that there is no net electrical charge between around pH 3.9 and around pH 11.5, where the solubility of PuraMatrix® becomes low. Usually, aqueous PuraMatrix® solution has its pH level at 2.0-2.5. […] Although isotonic PuraMatrix® formulated in 10% sucrose solution has been used for cell culture experiments as shown in the current PuraMatrix® cell culture protocol, the pH of PuraMatrix® with 10% sucrose was also 2.2.

[2] = cited from earlier work

**Q.** For RADARADARADARADA [PuraMatrix®], which pH [1] is on record?
**A.** 2.2

**Q.** What about the pH level ([2]; aqueous PuraMatrix solution, usually) of the same sequence?
**A.** 2.0-2.5

**Q.** And the solubility ([2]; between around pH 3.9 and around pH 11.5)?
**A.** low

**Q.** And the “pKa of aspartic acid in PuraMatrix” value [2]?
**A.** 3.9
